# Test results: US20210347869A1 (UNIVERSITY OF QUEENSLAND, published 2021)
# B1: AB1 IgG1 (antibody, V domains shown)
# VH: QVQLKQSGPGLVQPSQSLSITCTVSGFSLTSYGVHWVRQSPGKGLEWLGVIWRGGSTDYNAAFMSRLSITKDNSKSQVFFKMNSLQADDTAIYYCAKNTNHRYDGYYAMDYWGQGTSVTVS
# VL: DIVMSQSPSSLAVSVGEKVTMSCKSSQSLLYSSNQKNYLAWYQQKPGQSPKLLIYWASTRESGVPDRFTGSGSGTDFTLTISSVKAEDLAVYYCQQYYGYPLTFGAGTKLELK
# notes: Expressed in Expi-CHO, about 156 kDa; For SPR it was biotinylated with NHS-LC-LC-biotin and captured on streptavidin; also called full-sized murine IgG1
# B2: AB1 Fab (Fab, V domains shown)
# VH: QVQLKQSGPGLVQPSQSLSITCTVSGFSLTSYGVHWVRQSPGKGLEWLGVIWRGGSTDYNAAFMSRLSITKDNSKSQVFFKMNSLQADDTAIYYCAKNTNHRYDGYYAMDYWGQGTSVTVS
# VL: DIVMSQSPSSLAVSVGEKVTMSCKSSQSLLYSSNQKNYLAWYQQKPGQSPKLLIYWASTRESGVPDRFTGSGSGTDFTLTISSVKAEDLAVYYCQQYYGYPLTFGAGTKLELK
# notes: Biotinylated and captured on streptavidin for SPR
# B3: AB1 IgG2a (antibody, V domains shown)
# VH: QVQLKQSGPGLVQPSQSLSITCTVSGFSLTSYGVHWVRQSPGKGLEWLGVIWRGGSTDYNAAFMSRLSITKDNSKSQVFFKMNSLQADDTAIYYCAKNTNHRYDGYYAMDYWGQGTSVTVS
# VL: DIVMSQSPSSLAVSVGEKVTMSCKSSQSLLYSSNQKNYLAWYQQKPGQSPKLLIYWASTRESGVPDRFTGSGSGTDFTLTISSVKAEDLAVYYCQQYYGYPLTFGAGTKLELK
# notes: About 156 kDa; Biotinylated and captured on streptavidin for SPR; also called full-sized murine IgG2a
# Legend:
# full-length human tau [1] = target: T1, full-length human tau (human, UniProt P10636 2-757); assay: SPR (Biacore S200), single-cycle, biotinylated antibody captured on streptavidin chip, tau as analyte, steady state affinity fit; IgG1 format
# T1 construct: also called tau441; human tau isoform 2
# Experimental: (§1) (C) Single-cycle kinetics of AB1 to full-length human tau was determined using surface plasmon resonance. […] (D) The molecular weight (MW), binding affinity (KD) and activity for each of the AB1 antibody formats.
# (§2) Surface plasmon resonance measurements were conducted at the Monash Fragment Platform, Monash University, using the Biacore S200 biosensor (GE Healthcare). Biotinylated AB1 was captured on a streptavidin-coated CM5 chip. For biotinylation, AB1 IgG1 (29.5 μM), AB1 IgG2a (32.0 μM), AB1 Fab (22.9 μM) and AB1 scFv (60.4 μM) (in 137 mM NaCl, 2.7 mM KCl, 10 mM Na2HPO4, 1.8 mM KH2PO4) was added in a 1:1 ratio with EZ-link NHS-LC-LC-biotin (Thermo Scientific) and incubated at 25° C. for 1 hr. Antibodies were separated from free-unconjugated biotin using size-exclusion chromatography on a Superdex 200 10/300 GL (GE Healthcare) or Superdex 75 10/300 Increase (GE Healthcare) equilibrated in 137 mM NaCl, 2.7 mM KCl, 12 mM Na2HPO4, 1.8 mM KH2PO4, pH 7.4. Streptavidin was immobilized on the CM5 chip using amine coupling at 37° C. […]
# full-length human tau [2] = target: T1, full-length human tau; assay: SPR (Biacore S200), single-cycle, biotinylated Fab captured on streptavidin chip, tau as analyte, steady state affinity fit; Fab, not IgG
# Experimental: as §1, §2
# full-length human tau [3] = target: T1, full-length human tau; assay: SPR (Biacore S200), single-cycle, biotinylated antibody captured on streptavidin chip, tau as analyte, steady state affinity fit; IgG2a format
# Experimental: as §1, §2
# T1 sequence (P10636 other isoform, or with tags, fused parts or gaps limits assumed): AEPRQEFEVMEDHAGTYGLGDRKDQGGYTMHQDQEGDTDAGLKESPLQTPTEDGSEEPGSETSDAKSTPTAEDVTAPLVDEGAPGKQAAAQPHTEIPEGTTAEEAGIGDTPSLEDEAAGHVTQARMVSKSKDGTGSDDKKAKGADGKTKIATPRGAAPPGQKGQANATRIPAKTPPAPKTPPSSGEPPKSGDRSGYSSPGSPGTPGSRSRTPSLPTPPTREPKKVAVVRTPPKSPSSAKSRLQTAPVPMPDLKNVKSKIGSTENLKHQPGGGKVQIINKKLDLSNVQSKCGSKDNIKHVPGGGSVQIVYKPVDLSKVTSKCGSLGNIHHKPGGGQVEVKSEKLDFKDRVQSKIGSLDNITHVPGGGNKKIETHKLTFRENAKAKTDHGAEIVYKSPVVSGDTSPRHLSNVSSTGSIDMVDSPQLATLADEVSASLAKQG
binder,measurement,setting,value
B1,Kd,full-length human tau [1],407 nM
B2,Kd,full-length human tau [2],298 nM
B3,Kd,full-length human tau [3],381 nM
